Target: Avi-tagged human eIF4A1 full length (human) (UniProt P60842)
Assay: SPR

Sequence of Avi-tagged human eIF4A1 full length (human) (P60842 whole entry): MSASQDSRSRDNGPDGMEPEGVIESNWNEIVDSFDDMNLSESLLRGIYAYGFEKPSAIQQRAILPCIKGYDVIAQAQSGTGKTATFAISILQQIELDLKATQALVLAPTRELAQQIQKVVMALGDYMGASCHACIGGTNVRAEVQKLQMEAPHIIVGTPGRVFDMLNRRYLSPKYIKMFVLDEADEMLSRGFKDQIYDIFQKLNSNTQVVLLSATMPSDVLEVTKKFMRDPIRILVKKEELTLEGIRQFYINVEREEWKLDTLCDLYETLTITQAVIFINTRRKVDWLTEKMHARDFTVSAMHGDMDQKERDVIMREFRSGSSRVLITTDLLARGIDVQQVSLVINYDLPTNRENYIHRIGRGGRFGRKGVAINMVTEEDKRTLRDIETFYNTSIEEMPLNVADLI

eIF4G-MIF (middle domain of eIF4G, residues 712-1011) (domain or fragment)
fold increase in binding affinity with hippuristanol against no compound: 5 fold

From paper doi:10.1101/2025.03.24.644895
